In the nanobody polyreactivity screen of Harvey et al. (2022):

Experiment: yeast display, Sf9 membrane polyspecificity reagent, FACS + sequencing; frameworks hold sequencing errors
Method in brief: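 A synthetic nanobody library was expressed on Saccharomyces cerevisiae BJ5465 by galactose induction for 36–48 hours. The library was stained for 1 hour at 4 °C with 10% biotinylated, detergent-solubilized Sf9 membrane reagent and enriched with streptavidin microbeads before FACS. Low and high (top ~1%) gates were set on anti-HA fluorescence for expression and streptavidin fluorescence for reagent binding, and each polyreactivity label reflects the gate of origin.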

Sequence	polyreactivity (PSR sort gate)
QVQLVESGGGLVQAGGSLRLSCAASGGTFAVNVMGWYRQAPGKERELVAAITSNGGSTYYADSVNGRFTISRDNAKNTVYLQMNSLKPEDTAVYYCAAEGSGWYTGHYYYWGQGTQVTVSS	low polyreactivity
QVQLVESGGGLVQAGGSLRLSCAASGGTFAVYAMGWYRQAPGKERELVAAIDSGGRTNYADSVKGRFTISRDNAKNTVYLQMNSLKPEDTAVYYCAADGGGQYVRYDYWGQGTQVTVSS	high polyreactivity
QVQLVESGGGLVQAGGSLRLSCAASGGTFAWNAMGWYRQATGKERELVAAISFDGTSTYYADSVKGRFTISRDNAKNTVYLQMNSLKPEDTAVYYCNRVYLGYFRYDYWGQGTQVTVSS	high polyreactivity
QVQLVESGGGLVQAGGSLRLSCAASGGTFAYKAMGWYRQAHGKERQLVAAITSSGGSTYYADSVKGRFTISRDNAKNTVYLQMNRLKPEDTAVYYCNRLRNRSLGGYYYWGQGTQVTVSS	high polyreactivity
QVQLVESGGGLVQAGGSLRLSCAASGGTFDINDMGWYRQAPGKEREFVAAIDWSGGNTYYADSVKGRFIISRDNAKNTVYLQMNSLKPEDTAVYYCNARRKRSYDYWGQGTQVTVSS	low polyreactivity
QVQLVESGGGLVQAGGSLRLSCAASGGTFDWNAMGWYRQAPGKERELVASISSSGGSTYYADSVNGRFTISRDNAKNTVYLQMNSLKPEDTAVYYCNAERKIIAYLWWYDYWGQGTQVTVSS	low polyreactivity
QVQLVESGGGLVQAGGSLRLSCAASGGTFFKNAMGWYRQAPGKERELVAVIDTISTSTYYADSVKGRFTISRDNAKNTVYLQMNSLKPEDTAVYYCAAEYGPGLTEGLYYYWGQGTQVTVSS	high polyreactivity
QVQLVESGGGLVQAGGSLRLSCAASGGTFGAYAMGWYRQAPGKERELVAAINVGGGSTYYADSVKGRFTISRDNAKNTVDLQMNSLKPEATAGYYCAKDLYDGYWRGDYWGQGTQVTVSS	low polyreactivity
QVQLVESGGGLVQAGGSLRLSCAASGGTFGTNAMGWYRQAPGKEREFVAAISRSGGSTNYADSVKGRFTISRDNAKNTVYLEMNILKPEDTAVYFCATRVIVVPRGGGYYSWGQGTQVTVSS	high polyreactivity
QVQLVESGGGLVQAGGSLRLSCAASGGTFGTNTMGWYRQAPGKERELVAAISRSGGSTYYADSVKGRFTISRDNAKNTVYLQMNCLKPEDTAVYYCNAVPRKYTDEFDYWGQGTQVTVSS	high polyreactivity
QVQLVESGGGLVQAGGSLRLSCAASGGTFIYYAMGWYSQAPGKERELVAAISSGGSTYYADSVKGRFTISRDNAKNTVYLQMNSLKPEDTAVYYCAKRRAVQIVDLEYWRQGTQVTVSS	low polyreactivity
QVQLVESGGGLVQAGGSLRLSCAASGGTFKRYAMGWYRQAPGKERELVAAISGRGGSTYYADSVKGRFTISRDNAKTTVYLQMNSLKPEDTAVYYCNAGGSPQFYGRSKGDYWGQATQVTVSS	high polyreactivity
QVQLVESGGGLVQAGGSLRLSCAASGGTFNRNAMGWYRQAPGKERELVAAISSSGGRTYYADSVKGRFTISRDNAKNTVYLQMNSLKPEDTAVYYCAAGRKGHGGAYDSWAQGTQVTVSS	high polyreactivity
QVQLVESGGGLVQAGGSLRLSCAASGGTFNRYAMGWYRQAPGKERELVAAISWSGGSTYYADSVKGRFTISRDTAKNTVYLQMNSLKPEDTAVYYCNARNWYYEGDYWGQGTQVTVSS	high polyreactivity
QVQLVESGGGLVQAGGSLRLSCAASGGTFPAYAMGWYRQAPGKERELVASISDDDSTYYADSVKGRFTISRDNAKNTVYLQMNSLKPEDTAVYYCNVEYWYYPSVEYYWTAYDYWGQGTQVTVSS	low polyreactivity
QVQLVESGGGLVQAGGSLRLSCAASGGTFPRYAMGWYRQAPGKERELVAAINQSGGRTYYADSVKGRFTISRDNAKNTVYLQMNSLKPEDTADYYCAAGYGWRTSYLSYGYWGQGTQVTVSS	high polyreactivity
QVQLVESGGGLVQAGGSLRLSCAASGGTFPRYAMGWYRQAPGKERELVAAITRSGGRTYYADSVKGRFTISRDNAKNTVYLQMNSLKPEDTAVYYCAADAPDYRMDYWGQGTQVTVSS	high polyreactivity
